Among the data in PMC5424161 are degradation_or_half_life and other values, retold here.

For the data set the following is noted: O-GlcNAc at T241.

Consider YAP (Yes-associated protein): T241A, for which the degradation_or_half_life result is reported as “decreases” and the other entry was “increases”. As to “YAP (Yes-associated protein): OGT knockdown (shRNA)”, the degradation_or_half_life result is “decreases”.
